The target in this data set is T1, SPRTN WT (human, UniProt Q9H040 1-489).
T1 sequence: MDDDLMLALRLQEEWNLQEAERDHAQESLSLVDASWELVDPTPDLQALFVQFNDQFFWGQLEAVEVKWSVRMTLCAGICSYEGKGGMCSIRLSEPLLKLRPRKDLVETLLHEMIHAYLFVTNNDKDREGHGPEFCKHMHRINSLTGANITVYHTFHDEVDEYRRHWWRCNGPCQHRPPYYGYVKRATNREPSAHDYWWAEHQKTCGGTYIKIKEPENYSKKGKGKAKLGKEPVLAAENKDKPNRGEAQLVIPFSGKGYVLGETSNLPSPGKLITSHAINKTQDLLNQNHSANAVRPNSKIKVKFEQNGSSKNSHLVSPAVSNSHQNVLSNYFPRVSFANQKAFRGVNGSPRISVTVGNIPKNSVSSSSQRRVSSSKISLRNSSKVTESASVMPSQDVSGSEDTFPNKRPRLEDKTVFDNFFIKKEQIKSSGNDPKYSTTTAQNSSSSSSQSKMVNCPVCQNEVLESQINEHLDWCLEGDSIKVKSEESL
The experiment in a line: fluorescence polarization; affinity similar to dsDNA; Probe annealing buffer: 10 mM HEPES pH 7.5, 50 mM NaCl; FP assay buffer and temperature not in the material. To be noted: protein: recombinant; tags: His-ZB tag cleaved by TEV; label: FITC (position not in material); single strand. Background: Polarisation of emitted light reports the rotation of a fluorescent probe.

This is an account of results in publication PMC5128727, “Metalloprotease SPRTN/DVC1 Orchestrates Replication-Coupled DNA-Protein Crosslink Repair”.

B1: ssDNA (OD1) (ssDNA)
DNA: ATCGATAGTCGGATCCTCTAGACAGCTCCATGTAGCAAGGCACTGGTAGAATTCGGCAGCGTC
On to B1, for which the binding result is on record as “binds”.
